According to patent publication US20230277633:

B1: protease IdeS (protein)
chain: DSFSANQEIRYSEVTPYHVTSVWTKGVTPPANFTQGEDVFHAPYVANQGWYDITKTFNGKDDLLCGAATAGNMLHWWFDQNKDQIKRYLEEHPEKQKINFNGEQMFDVKEAIDTKNHQLDSKLFEYFKEKAFPYLSTKHLGVFPDHVIDMFINGYRLSLTNHGPTPVKEGSKDPRGGIFDAVFTRGDQSKLLTSRHDFKEKNLKEISDLIKKELTEGKALGLSHTYANVRINHVINLWGADFDSNGNLKAIYVTDSDSNASIGMKKYFVGVNSAGKVAISAKEIKEDNIGAQVLGLFTLSTGQDSWNQTNHHHHHHSSG
B2: protease IdeE (protein)
chain: DDYQRNATEAYAKEVPHQITSVWTKGVTPLTPEQFRYNNEDVIHAPYLAHQGWYDITKAFDGKDNLLCGAATAGNMLHWWFDQNKTEIEAYLSKHPEKQKIIFNNQELFDLKAAIDTKDSQTNSQLFNYFRDKAFPNLSARQLGVMPDLVLDMFINGYYLNVFKTQSTDVNRPYQDKDKRGGIFDAVFTRGDQTTLLTARHDLKNKGLNDISTIIKQELTEGRALALSHTYANVSISHVINLWGADFNAEGNLEAIYVTDSDANASIGMKKYFVGINAHRHVAISAKKIEGENIGAQVLGLFTLSSGKDIWQKLSHHHHHH

Legend:
[1] = test system: human IVIg (an intravenous human immunoglobulin)
[2] = molecular target: human IVIg (an intravenous human immunoglobulin); remark: listed apart in the source

Molecule	enzymatic digestion of human IVIg in vitro, SDS-PAGE (10 ug IVIg per 1 Unit IdeZ, 37 C, 1 h) [1]	enzymatic digestion of human IVIg in vitro, SDS-PAGE (enzyme:IVIg 1:200 by mass, 37 C, 1 h) [2]
protease IdeZ (Genovis)	all the three proteases can effectively cleave human IVIg	
B1		all the three proteases can effectively cleave human IVIg
B2		all the three proteases can effectively cleave human IVIg
